This is an account of results in patent US20220163515.

As usually defined, the Kd is the concentration at which binding is half-saturated. A low value points to a tighter complex.

Series [1] deals with Pumby8_KD_4 (synthetic (from Homo sapiens Pumilio unit 6)) (UniProt Q14671). Nature of the series: FP. The settings on record: 25 mM Tris-HCl pH 7.5, 0.5 mM EDTA, 50 mM KCl, 0.1 mg/mL BSA; active-fraction corrected.
Series [2] deals with Pumby8_KD_3 (synthetic (from Homo sapiens Pumilio unit 6)) (UniProt Q14671). The series can be described thus: FP. Particulars: 25 mM Tris-HCl pH 7.5, 0.5 mM EDTA, 50 mM KCl, 0.1 mg/mL BSA; active-fraction corrected.
Sequence of Pumby8_KD_3 (synthetic (from Homo sapiens Pumilio unit 6)) (Q14671 1028-1063): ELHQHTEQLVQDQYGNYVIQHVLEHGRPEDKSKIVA

Sequence of Pumby8_KD_4 (synthetic (from Homo sapiens Pumilio unit 6)) (Q14671 1028-1063): as above

CCAGAAUCAUGUCAGUUCG [KD_2/KD_4 cognate] came in with a Kd in series [1] of 0.439 nM.
Take CCAGAAUUGUAGAUAUUCG [KD_3 cognate]: the Kd in series [2] was 1.34 nM.
